Results from publication PMC3084761.

Biological target: OS-9 fused to the N-terminus of EYFP (pEYFP-N1-OS-9) (human) (UniProt Q13438)
Experiment: FRET or BRET; live-cell confocal FRET of ECFP (donor) and EYFP (acceptor) fusions in HEK293 cells transfected 48 h; acceptor/donor plasmid ratios 1:1 to 5:1; FRET efficiency against A/D ratio fitted to a 1:1 binding model

Sequence of OS-9 fused to the N-terminus of EYFP (pEYFP-N1-OS-9) (human) (Q13438 26-667): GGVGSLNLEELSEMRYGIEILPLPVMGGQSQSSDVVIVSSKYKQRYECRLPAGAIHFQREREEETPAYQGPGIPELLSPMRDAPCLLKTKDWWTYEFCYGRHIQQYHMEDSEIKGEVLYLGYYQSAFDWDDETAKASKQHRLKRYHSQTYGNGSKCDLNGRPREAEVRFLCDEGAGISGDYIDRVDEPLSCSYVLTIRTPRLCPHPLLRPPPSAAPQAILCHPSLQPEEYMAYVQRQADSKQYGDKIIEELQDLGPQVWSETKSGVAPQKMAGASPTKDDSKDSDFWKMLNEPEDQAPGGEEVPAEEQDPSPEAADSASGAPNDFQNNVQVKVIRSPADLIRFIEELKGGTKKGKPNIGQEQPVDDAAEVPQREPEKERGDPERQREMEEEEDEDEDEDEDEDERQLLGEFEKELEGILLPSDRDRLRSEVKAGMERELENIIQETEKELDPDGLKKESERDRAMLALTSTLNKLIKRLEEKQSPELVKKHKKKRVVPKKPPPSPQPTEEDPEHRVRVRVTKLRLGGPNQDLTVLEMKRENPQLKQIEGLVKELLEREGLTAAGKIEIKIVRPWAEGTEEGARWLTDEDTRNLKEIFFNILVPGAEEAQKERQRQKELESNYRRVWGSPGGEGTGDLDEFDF

- maximum FRET efficiency: < 10%
Substance: PHD2-ECFP (PHD2 coding sequence in pECFP-N1) (from UniProt Q9GZT9 1-426) (enzyme)
